3 molecules from publication PMC3601957, “Structural Basis of Rap Phosphatase Inhibition by Phr Peptides” (PLoS Biology, 2013) can be followed below.

Experiment [1] concerns the target T1, RapF^E303A (Bacillus subtilis, UniProt P71002, E303A).
T1 construct: 6xHis (N, cleaved yes); made in house; host or cells: Escherichia coli BL21 RIL
In words: Gel shift (native PAGE) titration, apparent Kd, RapF^E303A. In kind it is binding, B. subtilis. The protocol:
(§1) The formation of complexes was analyzed by native polyacrylamide gel electrophoresis (Native-PAGE), similarly to that described by Salinas et al.. Briefly, mixtures of RapF (WT and mutants), ComA (10 µM of each protein), or Phr peptides (0.5 mM), as indicated, were incubated in buffer A (200 mM NaCl, 50 mM Tris-HCl [pH 8.0]) at room temperature for 30 min, separated by Native-PAGE and visualized by Coomassie blue staining. The peptide binding constants for RapF, RapF^D194A, RapF^N227A, RapF^E303K, and RapF^E303A were calculated following the same approach. Reaction mixtures containing 20 µg of protein and peptide concentrations ranging from 50 nM to 1.2 mM in 20 µl of buffer A were incubated for 15 min at room temperature. Reactions were separated in 8% acrylamide native gel (100 V, 4°C, 2 h) and visualized by Coomassie blue staining. Free protein was quantified using the Multigauge V2.1 software (Fujifilm) and the fraction of bound protein was estimated by subtracting free protein from the input protein. Data were plotted as a fraction of the Phr bound protein versus the Phr concentration, and were analyzed by the Graphpad prism software. The midpoint of the transition was taken as the apparent Kd. To calculate the Kd values, at least three independent experiments were analyzed.
On the technique in general: Mobility shift assays separate free from complexed probe on a gel.

The target of experiment [2] is T2, RapF (Bacillus subtilis, UniProt P71002).
T2 construct: 6xHis (N, cleaved yes); made in house; host or cells: Escherichia coli BL21 RIL
In kind it is binding, B. subtilis. Conditions: wild-type RapF, at 12 µM PhrF; native PAGE titration. The protocol: as §1

Experiment [3] concerns the target T3, RapF^D194A (Bacillus subtilis, UniProt P71002, D194A).
T3 construct: 6xHis (N, cleaved yes); made in house; host or cells: Escherichia coli BL21 RIL
In words: Gel shift (native PAGE) titration, apparent Kd, RapF^D194A. In kind it is binding, B. subtilis. The protocol: as §1

Experiment [4] has as its target T4, RapF^N227A (Bacillus subtilis, UniProt P71002, N227A).
T4 construct: 6xHis (N, cleaved yes); made in house; host or cells: Escherichia coli BL21 RIL
Put plainly: Gel shift (native PAGE) titration, apparent Kd, RapF^N227A. In kind it is binding, B. subtilis. The protocol: as §1

For experiment [5], the target named is T5, RapF (B. subtilis, UniProt P71002 1-381).
T5 construct: RapF of Bacillus subtilis, amplified from genomic DNA and cloned in pPROEX-HTa; The text speaks of residues up to Val381, which fits the whole protein; also called wild-type RapF; native RapF; source: E. coli BL21 RIL, purified (HisTrap, TEV digestion, Superdex 200); not shown: His6, N-terminal, cleaved
T5 sequence: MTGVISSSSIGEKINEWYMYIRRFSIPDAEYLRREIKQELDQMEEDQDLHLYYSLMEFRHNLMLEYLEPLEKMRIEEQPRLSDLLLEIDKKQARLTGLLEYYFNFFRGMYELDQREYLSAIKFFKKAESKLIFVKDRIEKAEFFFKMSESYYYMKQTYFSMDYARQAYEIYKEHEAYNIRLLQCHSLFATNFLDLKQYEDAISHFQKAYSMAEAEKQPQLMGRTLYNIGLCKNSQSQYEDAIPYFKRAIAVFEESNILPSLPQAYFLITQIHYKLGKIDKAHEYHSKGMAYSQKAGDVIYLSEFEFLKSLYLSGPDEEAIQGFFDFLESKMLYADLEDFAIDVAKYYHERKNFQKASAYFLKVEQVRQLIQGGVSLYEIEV
Put plainly: native gel or EMSA; Native-PAGE, Coomassie stained; RapF (WT or mutant) and ComA 10 µM each, Phr peptides 0.5 mM; buffer A (200 mM NaCl, 50 mM Tris-HCl pH 8.0), room temperature, 30 min. To be noted: both partners purified.

Experiment [6] concerns the target T6, RapF^N227A (B. subtilis, UniProt P71002 1-381, N227A).
T6 construct: RapF of Bacillus subtilis with Asn227 changed to Ala, made from pPROEX-RapF by site-directed mutagenesis; Same construct as m1 with the point mutation; also called RapF Asn227 to Ala mutant; RapF^N277A (misprint in the text); source: E. coli BL21 RIL, purified as native RapF; not shown: His6, N-terminal, cleaved
T6 sequence: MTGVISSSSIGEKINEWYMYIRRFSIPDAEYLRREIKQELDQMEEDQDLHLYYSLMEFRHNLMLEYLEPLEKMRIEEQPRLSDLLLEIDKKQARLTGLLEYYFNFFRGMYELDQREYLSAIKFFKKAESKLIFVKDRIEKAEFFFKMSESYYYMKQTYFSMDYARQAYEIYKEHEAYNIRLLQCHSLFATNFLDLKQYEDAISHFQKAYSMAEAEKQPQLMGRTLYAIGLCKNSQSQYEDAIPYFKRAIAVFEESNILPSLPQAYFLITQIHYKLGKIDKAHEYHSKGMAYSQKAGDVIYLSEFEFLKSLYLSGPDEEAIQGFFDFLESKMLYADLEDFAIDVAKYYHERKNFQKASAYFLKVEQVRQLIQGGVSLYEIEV
Described as above. To be noted: both partners purified.

The target of experiment [7] is T7, RapF^D194A (B. subtilis, UniProt P71002 1-381, D194A).
T7 construct: RapF of Bacillus subtilis with Asp194 changed to Ala, made from pPROEX-RapF by site-directed mutagenesis; Same construct as m1 with the point mutation; also called RapF Asp194Ala; source: E. coli BL21 RIL, purified as native RapF; not shown: His6, N-terminal, cleaved
T7 sequence: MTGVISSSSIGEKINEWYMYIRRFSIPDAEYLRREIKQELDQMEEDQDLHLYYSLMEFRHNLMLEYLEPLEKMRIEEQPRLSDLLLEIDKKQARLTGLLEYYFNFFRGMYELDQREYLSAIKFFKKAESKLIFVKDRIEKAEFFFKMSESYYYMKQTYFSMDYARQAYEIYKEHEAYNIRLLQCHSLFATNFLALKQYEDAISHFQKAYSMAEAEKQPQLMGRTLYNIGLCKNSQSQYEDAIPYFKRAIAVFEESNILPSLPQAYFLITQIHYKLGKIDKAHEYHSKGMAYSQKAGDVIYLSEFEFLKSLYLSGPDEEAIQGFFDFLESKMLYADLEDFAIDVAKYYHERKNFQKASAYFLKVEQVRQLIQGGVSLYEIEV
The description is as above. To be noted: both partners purified.

In the next experiment the target is T8, RapF^E303K (B. subtilis, UniProt P71002 1-381, E303K).
T8 construct: RapF of Bacillus subtilis with Glu303 changed to Lys, made from pPROEX-RapF by site-directed mutagenesis; Same construct as m1 with the point mutation; also called RapF Glu303Lys; source: E. coli BL21 RIL, purified as native RapF; not shown: His6, N-terminal, cleaved
T8 sequence: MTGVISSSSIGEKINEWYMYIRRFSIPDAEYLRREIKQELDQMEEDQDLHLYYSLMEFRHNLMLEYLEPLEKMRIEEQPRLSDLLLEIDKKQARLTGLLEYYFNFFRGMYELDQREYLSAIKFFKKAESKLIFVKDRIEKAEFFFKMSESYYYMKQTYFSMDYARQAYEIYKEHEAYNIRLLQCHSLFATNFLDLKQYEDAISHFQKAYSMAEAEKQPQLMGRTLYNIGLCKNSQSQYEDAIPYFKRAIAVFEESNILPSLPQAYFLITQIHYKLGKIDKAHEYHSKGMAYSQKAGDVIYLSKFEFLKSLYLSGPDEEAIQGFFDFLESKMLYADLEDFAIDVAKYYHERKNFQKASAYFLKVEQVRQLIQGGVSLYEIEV
The description is as above. Conditions: both partners purified.

Experiment [8] concerns the target T9, RapF^E303A (B. subtilis, UniProt P71002 1-381, E303A).
T9 construct: RapF of Bacillus subtilis with Glu303 changed to Ala, made from pPROEX-RapF by site-directed mutagenesis; Same construct as m1 with the point mutation; also called RapF Glu303Ala; source: E. coli BL21 RIL, purified as native RapF; not shown: His6, N-terminal, cleaved
T9 sequence: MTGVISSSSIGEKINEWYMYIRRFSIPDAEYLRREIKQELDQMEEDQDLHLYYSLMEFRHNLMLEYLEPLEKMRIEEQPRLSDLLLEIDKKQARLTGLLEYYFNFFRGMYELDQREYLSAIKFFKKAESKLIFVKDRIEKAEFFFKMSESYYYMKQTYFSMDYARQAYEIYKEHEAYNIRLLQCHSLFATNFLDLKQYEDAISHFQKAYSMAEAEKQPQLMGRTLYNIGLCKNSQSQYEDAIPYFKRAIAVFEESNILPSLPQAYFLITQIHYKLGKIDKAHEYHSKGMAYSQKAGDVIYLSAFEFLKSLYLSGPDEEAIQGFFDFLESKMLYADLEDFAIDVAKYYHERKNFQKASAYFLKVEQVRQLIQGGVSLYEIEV
Described as above. To be noted: both partners purified.

No end group written: not given here. Bounds are passed on as bounds.

As to ERGMT [PhrC], the Kd at RapF^E303A [1] was above 1.2 mM.
Consider QRGMI [PhrF], for which the “RapF present in the free form” value on RapF [2] is “less than 30%”. The Kd at RapF^D194A [3] and on RapF^N227A [4] was above 1.2 mM throughout.

B1: ComA (natural protein, B. subtilis, UniProt P14204 1-214, looked up)
chain: MKKILVIDDHPAVMEGTKTILETDSNLSVDCLSPEPSEQFIKQHDFSSYDLILMDLNLGGEVNGMELSKQILQENPHCKIIVYTGYEVEDYFEEAIRAGLHGAISKTESKEKITQYIYHVLNGEILVDFAYFKQLMTQQKTKPAPSSQKEQDVLTPRECLILQEVEKGFTNQEIADALHLSKRSIEYSLTSIFNKLNVGSRTEAVLIAKSDGVL
notes: also called RR ComA; full-length ComA; source: E. coli BL21 RIL, purified (HisTrap, TEV digestion, Superdex 200); not shown: His6, N-terminal, cleaved
As for B1, the binding result in the experiment with RapF [5], with RapF^N227A [6], with RapF^D194A [7], with RapF^E303K and in the experiment with RapF^E303A [8] was “binds” in each case.
